Data: the nanobody polyreactivity screen of Harvey et al. (2022)

Assay: yeast display, Sf9 membrane polyspecificity reagent, FACS + sequencing; frameworks hold sequencing errors
Summary of the method: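 Nanobodies came from a synthetic yeast display library in Saccharomyces cerevisiae BJ5465, induced with galactose for 36–48 hours and stained for 1 hour at 4 °C with 10% biotinylated, detergent-solubilized Sf9 membrane reagent. Cells were enriched on streptavidin microbeads and then FACS-sorted, with low and high (top ~1%) gates set on anti-HA fluorescence for expression and streptavidin fluorescence for reagent binding. Each polyreactivity label reflects the gate a clone came from. Genes were amplified by colony PCR, sequenced by MiSeq 2 × 250 and filtered by CDR length.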

Sequence	polyreactivity (PSR sort gate)
QVQLVESAGRLVQAGGSLRLSCDASGSTFKGYPIGWYRQAPGKERELVAAISRRGGSTYYADSVKGRFTISRDNAKNTVYLQMNSLKPEDTAVYYCAKEGQLRYDYWGQGTQVTVSS	high polyreactivity
QVQLVESARGLVKAGGSLLLSCAAYVSIFNHYAMGWYRQAPGKESELVARITNRSGNTYYADSVKGRFTISRDNAKNTGYLQLNSLKGEDTEVYYCAATKSLGRYNMDYWGPGTQVTVSS	low polyreactivity
QVQLVESAVGLVKAGGSHRLSCAASASTFYLNARGWYRQAPGKEREFVAAIRGGGTSKRYADSVKGRFTISRDNATNTVYLQMNILKPEDSAVYYCAAGRGGHRYKVGYWGLGTQVTVSS	high polyreactivity
QVQLVESAVGLVQAGGSLRLSCAASGTTFVRYAMGWYRQAPGKEREFVAASSKSGGSTYYADSVKGRFTISRDNAKNPVYLQMNSLKPEDTAVYYCATRTTYGQSGSAGPRPSNYWGQGTQVTVSS	low polyreactivity
QVQLVESCGCLVQAGGSLRFSCAASGNTFRRNVMGWYRQAPGKEREMVAAINRGGSTTYADSVKGRFTISRDNAKNTVYLQMNSLKPEDTAVYYFNDRTLFKWRHGHYYAYDYWGQGTQVTVSS	high polyreactivity
QVQLVESCGGIVQAGGSLRLSCAASGSILRSNSMGTYRQAPGKERELVAAISSRGGSTYYADSVKGRFTISRDNAKNTVYLQMNSLNPEDTAVYYCNKASYTVISYDEYDYWGQVTQVTVSS	high polyreactivity
QVQLVESCGGLDQAGGSLRLSCAASGRIFYAYAMGWYRQARGKERELVAAITSSGGRTYYADSVKGRFTISRDNAKNTVYLQMNSLKPEDTAVYYCAAYDYWGQGTQVTVSS	low polyreactivity
QVQLVESCGGLVQAGASLRLSCAASGSTFYDNVMGWYRQAPWKERELVAAITWRGGSTYADSVKGRFTISRDNAKNTVYLQMNSLKPEDTAVYYCNADDDYQQYLGDYWGQGTQVTVSS	low polyreactivity
QVQLVESCGGLVQAGGILRLSCAAYGRTFYKNAIGWYTQAPGKERELVAAMSSRGGRTTYADSVKGRFTISRDNAKYTVYLQMTSLKPEDTAVYYCAADWAQVYHGTPKYYYWGQGTQVTVSS	high polyreactivity
QVQLVESCGGLVQAGGSLRLRCAASGRIIRKYVMAWYRQAPGKERELVAAITGGGSTYYADSVKGRFTISRDNAKNTVYFQKNSLKPEDTAVYYCAADRQSAAHRLWGSEYGYWGQGTQVTVSS	high polyreactivity
QVQLVESCGGLVQAGGSLRLRCAASGSIFSGYVMVWYRPAPGKERELVAAISGSGGSTYYADSVKGRFTISRYNAKNTVYLQMNSLKPEDTAVYYCNVDRSPTHIVGYGYWGQGSQVTVSS	low polyreactivity
QVQLVESCGGLVQAGGSLRLSCAASGFTFLGYAMGWYRQAPGKERELVAAITSGDSTDYADSVKGRFTISRDNAKNTVYLQMNSLKPEDTAVYYCNAELGSAYEYWGQGTQVTVSS	low polyreactivity
QVQLVESCGGLVQAGGSLRLSCAASGFTFVYYAMGWYRKAPGKEREFVAAISKSGGSTYYADSVKGRFTISRDNAKNTVYLQMNSLKPEDTAVYYCAARSYQGTSSGRVTRRYDYWGQGTQVTVSS	high polyreactivity
QVQLVESCGGLVQAGGSLRLSCAASGLIFIYNAMGWYRQAPGKERELVAAISRSGGRTYYADSVKGLFTISRDNAKNTVYVQMNSLKPEDTEVYYCATDASTYAYYGGDYWGQGTQVTVSS	low polyreactivity
QVQLVESCGGLVQAGGSLRLSCAASGRIFNHNAMGWYRQAPGKEMKLVAAISWRGGSTYYADSVKGRFTISRYNAKNTVYLQRNSLKPEDTAVYYCATKPSPITYKLDYWGQGTQVTVSS	high polyreactivity
QVQLVESCGGLVQAGGSLRLSCAASGRIFPYNAMGWYRQAPGKERELVAAIDWRDNTYYADSVKGRFTISRDNAKNTVYLQMNSLKPEDTAVYYCNVDYTDYFLNKYDYWGQGTQVTVSS	low polyreactivity
QVQLVESCGGLVQAGGSLRLSCAASGRTFGYYAMGWYRQAPGNERELVAAISRGGRTNYADSVKGRFTISRDNAKNTVYLQMNSLKPEDTAVYYCAKSGTIPRYTASYSLLDYWGPGTQVTVSS	low polyreactivity
QVQLVESCGGLVQAGGSLRLSCAASGSTFTVNAMGWNRQAPVKERELVDAITQSRGSTSYADSVKGRFTISRDNAKNTVYVQMNSLKPEDTAVYYCNAQRGVRSRKSYRRQFDYWGHGTQVTVSS	low polyreactivity
QVQLVESCGGLVQAGGSLRLSCAATGSTIRTYAMGWYRQAPGTERELVAAISRSGGRTYYADSVKGRFTISRDNAKNTVYLQMNSLTPEDTAVYYCAKVSQRRVDTSDYDYWGQGTQVTVSS	high polyreactivity
QVQLVESCGGLVQAGGSLRLSCAGSGSTFVYYAMGWSRQAPGQERELVAAISRSGGSTYYADSVKGRFTISRDNAKNTVYLQMHSLKPEDTAVYYCNKYAIFPAYRYPRSDYWGQGTQVTVSS	high polyreactivity
QVQLVESCGGLVQAGGSLRLSFAASGSTFGYYTMGWYRQAPGKERELVAAISWSGGSTYYADSVKGRFTISRDNAKNTVYLQMNSLKPEDTAVYFCAALGYTYKYYSYYWGQGTQVTVSS	high polyreactivity
QVQLVESCGGLVQAGGSLRLTCAASGSTFTIYAMGWYRQAPGKERELVAVISSSGGSTYYADSVKGRFTISRDYAKNTVYLQMNSLKPEDTAVYYCAADTRYFGGYLTLYYWGQGTQVTVSS	low polyreactivity

Sequence	polyreactivity (PSR sort gate)
QVQLVESCGGLVQARGSLRLSCAASGRTIDSYAMGWYRQAPGKERELVAAITSGVSTYYADSVKGRITISRDNATNTVYLQMNSLQPEDTSVYYCARKHAIWRGYDFWGQGTQVTVSS	low polyreactivity
QVQLVESCGGLVQAVGSLRLSCAASGIIIGYNAIGWYILAPGKEREFVAAISGYGGSTRYADSVKGRFTISRDYGKNSVYLQMNSLKPEDTAVYYCAARSRYCYITFDYWGQGTQVTVSS	high polyreactivity
QVQLVESFGGLVHAGGSLRLSCAASGFTFTSYTMGWYRQAPGKEREMVAAITNTGGSTYYADSVKGRFTISRDNAKNYVYLQMNSLKQEDTWVYYCAARTHIYGKFWRFYWGQGTQVTVSS	low polyreactivity
QVQLVESGAALVQAGGSLRLSCAASGFTFFTYAMGWYRQATGKDSELVAAITSSGGSTYYADSVKGRFTISRDNAKNTVYLQMNSLNPEDTAVYDCAASVYFWYDYWGQGTQGTVSS	high polyreactivity
QVQLVESGAGIVQAGGSLRLCCAATGITFDFYAMGWYTQAPGKERELVAAISYSGTSTSYADSVKGRFTISRDNAKNTVYLQMNSLKPEDTAVYYCNARIGWTHSYYELDYWGQGTQVTVSS	low polyreactivity
QVQLVESGAGLVHAGGSLRFSCAPSGIIIYRYAMGWYRQAPGKERELVAGISQRGGNTYYADSVKGRFTISRDNEKNTVYLQMYSLKPEDTAVYYCAAPYYGTRTNNRHEYWGLGTQVTVSS	high polyreactivity
QVQLVESGAGLVHAGGSLRLSCAASGSTFSPYAMGWYRQAPGKESELVAAITSSGGSTYYADSVKGRFTISRDNAKNTVYLQMISLKPEDTALYYCAAVGYYTSTYDLYDYYYWGQGTHVTVSS	low polyreactivity
QVQLVESGAGLVKAGGILRLSCAASGFTFYGYAMGWYRQAPGKERELVAAITFRGDRTYYADSVKGRFTISRDNAKNTVYLQMNSLIPEDTAVYYCAAERPSGWYSYLSLYIVRRGYWGQGTQVSVSS	low polyreactivity
QVQLVESGAGLVKAGGSLRLSCAASGFSFQRNAMGWYRQAPGKERELVAAINRSGGRTYYADSVKGRFTISRDNAKYTVYLQMNSLKPEDTAVYYCAADSTYEYYFWGQGTQVTVSS	high polyreactivity
QVQLVESGAGLVLPGGSLRLSCAASGNTTSTNAMGWYRQAPGKERVAALTWSTGSTYYEDSVKVRFTISRDNAKNTVYLQMNSLKQDETAVYYCAKQTYVSEYGLATAAWGFDYWGQGTQVTVSS	low polyreactivity
QVQLVESGAGLVQAAGSLSLSCASAGSTFFLYAMGRYRRAHGKVREFVAAISDTGGSTYYADSVKGRFTISRDNATNTVYLQMISLKPEDTACYYCNRVVASFYRSRYDYWGQGTQVTVSS	low polyreactivity
QVQLVESGAGLVQAGGILRLSCAASGRIIAYYAMGWYRQAPGKERELVAAINWSGGRTYYADSVKGRFTISRDNAKNTVYLQMNSLKPEDTAVYYCAARVSYGYDYWGQGTQVTVSS	high polyreactivity
QVQLVESGAGLVQAGGILRLSCAASGSTFIYNAMGWYIQAPGKERELVAAISARTGNTYYADSVKGRFTISRDNAKNTVYLQMNSLKPEDTAVYYCARRGFRRGGGPSRYYWYDYWGQGTQVTVSS	high polyreactivity
QVQLVESGAGLVQAGGRLRLSCAASGIIFYNYAMGWYRQAPGKERQFVAAISWSGGSTNYADSVKGRFTISRDNAKNTVYLQMNSLKPEDTAVYYCAAEYSGNNYNSDYWGQGTQVTVSS	low polyreactivity
QVQLVESGAGLVQAGGSLGLSCAASGFTFRTYAMGWYRQAPGKERELVADISGSGGSTYYADSVKGRFTISRYNAKNTVYLQMISLKPEDTAVYYCAGTIYNWGYERDYWGQGTQVTVSS	high polyreactivity
QVQLVESGAGLVQAGGSLRLRCAASGYTLGPYAMGWYRPAPGKERELVAAISWGGGRTYYADSVKGRFTISRDNAKNTVYLQMNSLKPEDTAVYDCAAKWSHVRDGPKYDYWGQGTQVTVSS	low polyreactivity
QVQLVESGAGLVQAGGSLRLSCAASGFIFRYYAMGWYRQAPGKERELVARITPRGGRTYYADSVKGRFTISRDNAKNTVYLQMNSLKPEDTAVYYFAAVYPVLHEFGYWGQGTQVTVSS	high polyreactivity
QVQLVESGAGLVQAGGSLRLSCAASGFIYEWYTMGWYTQAPGKERELVARISTDGSTTYADSVKGRFTISRDHAKKTVYLQMNSLKPEDTSVYYCAADVTYPGLKYIFDYWGQGTQVTVSS	low polyreactivity
QVQLVESGAGLVQAGGSLRLSCAASGGTFESYAMGWYRQAPGTERELVAAISGRGGRTYYADSVKGRFTISRDNAKNTVYLQMNSLKPEDTAVYYCRYWYYRTYYYWGQGTQVTVSS	high polyreactivity
QVQLVESGAGLVQAGGSLRLSCAASGITFYTYAMGWYRQAPGKERELVAAITSRTGSTYYADSVKGRFTISRDNAKNTVYLQMNSLKPEDTAVYYCAADRTRGRDGSDYWGQGTQVTVSS	low polyreactivity
QVQLVESGAGLVQAGGSLRLSCAASGLIFGTDAMGLYRQAPGKESELVAAITSGGRTYYADSVKGRFTISRDNAKNTVYLQLISLKPEDTAVYYCAAEGWWNDTPYDYWGQVTQVTVSS	low polyreactivity
